This data set is described as follows: soluble on expression in E. coli; label from the status in PepcDB or PDB records.
As to “MGHHHHHHGSSIETDRVSKEFIEFLKTFHKTGQEIYKQTKLFLEGMHYKRDLSIEEQSECAQDFYHNVAERMQTRGKVPPERVEKIMDQIEKYIMTRLYKYVFCPETTDDEKKDLAIQKRIRALRWVTPQMLCVPVNEDIPEVSDMVVKAITDIIEMDSKRVPRDKLACITKCSKHIFNAIKITKNEPASADDFLPTLIYIVLKGNPPRLQSNIQYITRFCNPSRLMTGEDGYYFTNLCCAVAFIEKLDAQSLNLSQEDFDRYMSGQTSPRKQ”, the “soluble on expression in E. coli” value is “soluble”. In the case of “MGSDKIHHHHHHMNKETQAMMLVPQGSIEGYIHAAYDYPMLTAEEEKELAERLYYHQDLDAAKTLILSHLRFVIHVARGYSGYGLPQADLIQEGNIGLMKAVKRFNPEVGVRLVSFAVHWIKAEIHEYVLRNWRIVKVATTKAQRKLFFNLRKTKQRLGWFSDKEVDMVANELGVSKEDVLEMESRMTGSDVGFDLPVDDDESYAPALYLEDKSSNFAAELENENFETQAADQVANALAELDERSQDIIKSRWLDDEKATLHDLAAKYNISAERVRQLETNALKKLKSAVSF”, the “soluble on expression in E. coli” value is “not soluble”. For “MDHGRRRLHSGSTPRGGERPAKRERISVEEQQSQEIRNLKRKLEEARQREDKYIKNEQLHHTAMRSKQQRIERMEKSMESTNRKMYATQCRLNDMENIYDDLEMESKIMADFIDHYYDSRNITEEDRDELQDKLDEEAANYRDLEDRIKEVRHRDRYMKTVETERKRTTFYRKKMLELAEQLQFEQQEVTGETPLWKLCEICAHQFSHSDEYVPRVLVCGHTLCTSCIEKLDVGDGIRCPFCRTWTNMKRIEALPKNFQILQM”, the “soluble on expression in E. coli” value is “not soluble”. With “MDNRNHSANVLIHLHMPKTGGTTLKKIIKRNYDSRKSVDVYEEHHKLPGIFKGLSKQNIECVQGHLPFGVHEYFNRPTTYITMLRDPVDRVISEYYFIRNIEWHNLHESVMKMSLEEYQGLPKNRNLQTRYILGGQLTSVTEVNRAKNILKNHFAVVGLTEKFDASLFLMKEMFNWKQVAYQKYNVTKKRRSKEEISPKLLEKIAKNNEADLELYAFAKELLAKRIRALDPLSAYRLKRFERKHQQGFHGKRDRMAGDPLEHHHHHH”, the “soluble on expression in E. coli” value is listed as “soluble”. Consider “MPTSSTPPIVYETDLEPIYYQDCYCHKELVFCKNWKFGGEIFKYNSSGTNSSIRRVQFDCCVYKDQEIDEEMSEKVKTFKGTLDPRQVVQNNCFQHLSPLYSKFCEHYGHMIGFFWNSLKDTVMAYDIADGLFQETKDCGCCLFHKDVYLTNHIFFEKSHRDEYGQTIICMDINWHTKEHGKMSIFFNSQGFFGEYRWNRVAQCFKLMKQLDVKTTEYEVADRTDDEKNWSSFSYDAIHFLEQEYRKTKYISSTDCQKISEKIHLDEELIEKWFRARRATSKREANSNEDIFTSQYQQTKLTMKDGTEGYFLRKNHEYFKKIVVTVGFSDGSVKPCVWIEKISEYQIIDQETWRLKFENSRVMAIDAEAREQVHRQRKLNSNEKRKEEEAENEQEKLFKEMAELEIQNYRILPNSSDKRLEEHELKTQSSTLPKPCAHAQAQAHAQAQAHAQAHETNDNWPKLMTELFRALLQGQSLTQQHMQRLVHLRTQPDFNRRSYAGHELTAMEMEALKQLLNLLNGKEMPTGKKEEVEGSGLTISEAHGTVGSPMLIEKKEELEGSLEHQPTMANEEIDQNLKEETTTKPEYRKKLRMSKRKQNELLQKLWLKEKNTENTHAEKTNQEKKLTENAVQEQLEQMMKMIQEERRAADSKNLKLEQMVLEMKDKLDAQETRIKELEEVIKSDKNAKKGEQLTDPTEPQYTEAPNAEVGHKSNISSSIGNDVDLLEDDSGED”, for which the “soluble on expression in E. coli” value is given as “not soluble”.

As for “MSVLDELYREILLDHYQSPRNFGVLPQATKQAGGMNPSCGDQVEVMVLLEGDTIADIRFQGQGCAISTASASLMTEAVKGKKVAEALELSRKFQAMVVEGAPPDPTLGDLLALQGVAKLPARVKCATLAWHALEEALR”, the “soluble on expression in E. coli” value is listed as “soluble”. The same measure for “MSKKRGLSGEEKRTRMMEIFFETKDVFQLKDLEKLAPKEKGITAMSVKEVLQSLVDDGMVDCERIGTSNYYWAFPSKALHARKRKLEALNSQLSEGSQKHADLQKSIEKARVGRQETEERAMLAKELFSFRDQRQQLKAEVEKYRECDPQVVEEIREANKVAKEAANRWTDNIFAIKSWAKRKFGFEESKIDKNFGIPEDFDYIDMSKSRAEAAAGAPGIILRYLQEQNRPYSAQDVFGNLQKEHGLGKAAVVKALDQLAQEGKIKEKTYGKQKIYFADQNQFDTVSDADLHGLDASIVALTAKVQSLQQSCRHMEAELKELTSALTTPEMQKEIQELKKECAQYTERLKNIKAATNHVTPEEKEKVYRDRQKYCKEWRKRKRMTTELCDAILEGYPKSKKQFFEEVGIETDEDHNVLLPDP”: “soluble”. As for “MADHNNTPPFDLTKLDHYIKYQPREEAEDFFVHVEVKVLGKGSSPLEISFSTSVYEFVWEDEDCYELVELYEFFTEDAGIDAFEAQFLVNDLILYVNKTTRPLDEDFTGVFKLMAEVTLKPVQLNHAGSQKTESQQP”, the “soluble on expression in E. coli” value is reported as “soluble”. With “MSYNLNLSHNIYKDAKLGTYYFRITYYDKSNTRKYITRKGFKQRKDAVKKCNEMMDELEGVGHLNRLPFDKLVEEYIDWYSARRKTSSVKALKTHTNNHLLPYFKSMDVFKMTTQDVMKFQNKKLKEGHSGDYLKKMHVYLVSLLNHAMKFHELKQNVASLVGNFEIESQKRLNYWTLEQFNQFYEALATQQQKLFFKLLFYSGARKGEIRALTWRDINFDDDFIHINKTDYHGEVTAPKTKSAIRDIYLPTHMMYDIKDYLIWYKENNIYKDDYVLFGTFYKAYSESTIDRW”, the “soluble on expression in E. coli” value is recorded as “not soluble”. The same measure for “MELGQAMVTVAGIGCRKGAASDAIIAAVRAAERAFGVTVDYLATAPLKADEAGLAEAAKGLSLSLEIVAQERLEAVAAETMTFSQASLDHSGSPSVSEAAALAAAGAGARLVAPRLVVGDVTVAIAMTSDAPHGSRSAIEYGEQE”: “not soluble”; for “EFILVQADTPSSPSIDQVEPYSSTAQVQFDEPEATGGVPILKYKAEWRAVGEEVWHSKWYDAKEASMEGIVTIVGLKPETTYAVRLAALNGKGLGEISAASEFKTQPVREPSAPKLEGQMGEDGNSIKVNLIKQDDGGSPIRHYLVRYRALSSEWKPEIRLPSGSDHVMLKSLDWNAEYEVYVVAENQQGKSKAAHFVFRTSAQPTAIPANGSPTSGL”: “soluble”. The same measure for “MGHHHHHHSHRGAGRVSRWPPPHWLEAWRVSPRPLSPLSPATFGRGFIAVAVIPGLWARGRGCSSDRLPRPAGPARRQFQAASLLTRGWGRAWPWKQILKELDECYERFSRETDGAQK”: “not soluble”. For the sequence “TPTEGLTIGDKAPTFTICGEKQLIDLKDLRGKYVLLSFWASYDALSRMQNATLNHAVAQADNVEMVSVSFDEYKSIFNETIKKDQISTSNCFVELAGVSSDLYQTYRLKRGFKNFLLDENGVIVAKDVTVSELSS”, the “soluble on expression in E. coli” value was “not soluble”. Turning to “MVDPQLDGPQLAALAAVVELGSFDAAAERLHVTPSAVSQRIKSLEQQVGQVLVVREKPCRATTAGIPLLRLAAQTALLESEALAEMGGNASLKRTRITIAVNADSMATWFSAVFDGLGDVLLDVRIEDQDHSARLLREGVAMGAVTTERNPVPGCRVHPLGEMRYLPVASRPFVQRHLSDGFTAAAAAKAPSLAWNRDDGLQDMLVRKAFRRAITRPTHFVPTTEGFTAAARAGLGWGMFPEKLAASPLADGSFVRVCDIHLDVPLYWQCWKLDSPIIARITDTVRAAASGLYRGQQRRRRPG”, the “soluble on expression in E. coli” value was “soluble”. With “MSLEDSTATFETRNMYFNRDFRDGTSAQQSKRDEWAQGFILNFESGYTDGTVGFGLDALGMLGIKLDSSPDRTDSGLLPTHDDGKAADEYSKLGLTGKVKISQTELKIGTLIPELPTLQPNDGRILPQTFEGGLLTSKEIKGLTFTGGRIDKAKDRNDTNWEDLALNNKNGRFGGTFSADNLALGGLDYQFTDRITGSYHFAQLDDIYRQHFIGMVATQPWGPGTLGADLRLAMSDDAGAAKAGNIDNTTVNGMLSYALGGHKVSAAWQQLSGESAFPYVDGADPYLVNFVQINDFAGADERSWQARYDYNFAALGVPGLTFMTRYISGDNVSRAAGGEGKEWERNTELKYVVQSGPLKNVAVRLRNATFRSNFARDADEVRLLVSYSVALWEGHHHHHH”, the “soluble on expression in E. coli” value is “soluble”. As for “MTARAVRGTKDLFGKELRMHQRIVATARKVLEAAGALELVTPIFEETQVFEKGVGAATDIVRKEMFTFQDRGGRSLTLRPEGTAAMVRAYLEHGMKVWPQPVRLWMAGPMFRAERPQKGRYRQFHQVNYEALGSENPILDAEAVVLLYECLKELGLRRLKVKLSSVGDPEDRARYNAYLREVLSPHREALSEDSKERLELNPMRILDSKSERDQALLKELGVRPMLDFLGEEARAHLKEVERHLERLSVPYELEPALVRGLDYYVRTAFEVHHEEIGAQSALGGGGRYDGLSELLGGPRVPGVGFAFGVERVALALEAEGFGLPEEKGPDLYLIPLTEEAVAEAFYLAEALRPRLRAEYALAPRKPAKGLEEALKRGAAFAGFLGEDELRAGEVTLKRLATGEQVRLSREEVPGYLLQALG”, the “soluble on expression in E. coli” value is “soluble”. Turning to “KFGASQDVVKWQEVTSNLPELSKKLMSSSSEPLSDDEMADLTLALRTRLHYQPEDSTGWLLLGRIALANRDVTTAIDSMKKSYALEPKDPDVMLGYAQALMLSQDEMDQATARSLLGKLMQQDYVDLRVFSLLAFDAFERKDYPAAIKYWGIMQQMIGPDDSRYESLSRSIDHARKQMGEVVSPDKSVAVTINVAPEAQLDPNAVLIVSIHRADGSPMPVAAARYPLGSFPRTVVLDDGNAMMQGQKLSSLEKLIVRVRADSDGNVATRDQDWHGESDVVEFGQPVAVTIDKQYQ”, the “soluble on expression in E. coli” value was “not soluble”.

As for “MIEFRQVSKTFNKKKQKIDALKDVSFTVNRNDIFGVIGYSGAGKSTLVRLVNHLEAASNGQVIVDGHDITNYSDKMMRDIKKDIGMIFQHFNLLNSATVFKNVAMPLILSKKSKTEIKQRVTEMLEFVGLSDKKDQFPDELSGGQKQRVAIARALVTNPKILLCDEATSALDPATTASILTLLKNVNQTFGITIMMITHEMRVIKDICNRVAVMEKGKVVETGTVKEVFSHPKTTIAQNFVSTVIQTEPSTSLIRRLNDEQVGDFKDYKIFVEETQVTQPIINDLIQICGREVKILFSSMSEIQGNTVCYMWLRFNMDQQFEDTAINQYFKEKNIQFEEVH”, the “soluble on expression in E. coli” value was “not soluble”.

For “MPWLLPREIAPLHQKALDRYLGSLTERLSDPNVDRNALVREELARLLYGRPYEELLEANPLAAMGLDPEGITFEAEYYAATDLEKFRRVKPLLWFWKVLDLTPLGQSVHSGVAIRRALAPFIFKRVGKNPKFFQNVEFSVGYNLELGDDVVVHRYVFLDDIGGIKIGDRTSLSDYVNVYSHTHHVLASPDVTLKETIIGSGVRITYHATVLAGVRIGDDAMVGTGAVVTKDIPPHAIALGIPARPVRYKVRHDCPYCRKGEPHPSDLVPKLPDRKGNPDYPDFLPPGFGTREAGS”, the “soluble on expression in E. coli” value was “soluble”.
